Positions count from the first letter of the chain named.
B1: MUT p.F573S (enzyme, human)
chain: LHQQQPLHPEWAALAKKQLKGKNPEDLIWHTPEGISIKPLYSKRDTMDLPEELPGVKPFTRGPYPTMYTFRPWTIRQYAGFSTVEESNKFYKDNIKAGQQGLSVAFDLATHRGYDSDNPRVRGDVGMAGVAIDTVEDTKILFDGIPLEKMSVSMTMNGAVIPVLANFIVTGEEQGVPKEKLTGTIQNDILKEFMVRNTYIFPPEPSMKIIADIFEYTAKHMPKFNSISISGYHMQEAGADAILELAYTLADGLEYSRTGLQAGLTIDEFAPRLSFFWGIGMNFYMEIAKMRAGRRLWAHLIEKMFQPKNSKSLLLRAHCQTSGWSLTEQDPYNNIVRTAIEAMAAVFGGTQSLHTNSFDEALGLPTVKSARIARNTQIIIQEESGIPKVADPWGGSYMMECLTNDVYDAALKLINEIEEMGGMAKAVAEGIPKLRIEECAARRQARIDSGSEVIVGVNKYQLEKEDAVEVLAIDNTSVRNRQIEKLKKIKSSRDQALAERCLAALTECAASGDGNILALAVDASRARCTVGEITDALKKVSGEHKANDRMVSGAYRQEFGESKEITSAIKRVHKFMEREGRRPRLLVAKMGQDGHDRGAKVIATGFADLGFDVDIGPLFQTPREVAQQAVDADVHAVGISTLAAGHKTLVPELIKELNSLGRPDILVMCGGVIPPQDYEFLFEVGVSNVFGPGTRIPKAAVQVLDDIEKCLEKKQQSV
notes: methylmalonyl-CoA mutase (MUT), human; construct 'hMUT' of Froese et al., 2010b with a patient missense mutation; Same construct limits as m1 (see its note); source: E. coli, purified (Ni-NTA, Superdex 200, TEV cleavage, reverse Ni-NTA)
B2: MUT p.V633G (enzyme, human)
chain: B1 chain with S541F, V601G
notes: as for B1
B3: MUT p.G648D (enzyme, human)
chain: B1 chain with S541F, G616D
notes: as for B1
B4: MUT p.R694W (enzyme, human)
chain: B1 chain with S541F, R662W
notes: as for B1
B5: MUT p.R694L (enzyme, human)
chain: B1 chain with S541F, R662L
notes: as for B1
B6: MUT p.M700K (enzyme, human)
chain: B1 chain with S541F, M668K
notes: as for B1
B7: MUT p.G717V (enzyme, human)
chain: B1 chain with S541F, G685V
notes: as for B1
B8: MUT p.P86L (enzyme, human)
chain: B1 chain with P54L, S541F
notes: as for B1
B9: MUT p.Y100C (enzyme, human)
chain: B1 chain with Y68C, S541F
notes: as for B1
B10: MUT p.Q218H (enzyme, human)
chain: B1 chain with Q186H, S541F
notes: as for B1
B11: MUT p.Y231N (enzyme, human)
chain: B1 chain with Y199N, S541F
notes: as for B1
B12: MUT p.N366S (enzyme, human)
chain: B1 chain with N334S, S541F
notes: as for B1
B13: MUT p.R369H (enzyme, human)
chain: B1 chain with R337H, S541F
notes: as for B1
B14: MUT p.T387I (enzyme, human)
chain: B1 chain with T355I, S541F
notes: as for B1
B15: MUT p.G426R (enzyme, human)
chain: B1 chain with G394R, S541F
notes: as for B1

Target: the molecule itself
Assay: SEC; Superdex 200 in the large-scale purification from E. coli; retention volumes of the mutants compared with wt MUT; data not shown

Stoichiometry N, 2:
B1
B2
B3
B4
B5
B6
B7
B8
B9
B10
B11
B12
B13
B14
B15
